Where two headings read alike, the source gives them in different places.
Columns and labels:
[1] = molecular target: AE.A244 V1V2 Tags (HIV-1); assay: ELISA
[2] = molecular target: T1, AE.A244 gp120 delta 11 (HIV-1); assay: ELISA
T1 construct: also called E.A244gp120Δ11; AE.A244 Δ11 gp120

[3] = molecular target: C.1086 V1V2 Tags (HIV-1); assay: ELISA
[4] = molecular target: T2, gp70 C.1086 V1/V2 (HIV-1 V1V2 on murine leukemia virus gp70); assay: ELISA
T2 construct: also called C.gp70 1086C V1V2; C.1086gp70V1V2
T2 chain: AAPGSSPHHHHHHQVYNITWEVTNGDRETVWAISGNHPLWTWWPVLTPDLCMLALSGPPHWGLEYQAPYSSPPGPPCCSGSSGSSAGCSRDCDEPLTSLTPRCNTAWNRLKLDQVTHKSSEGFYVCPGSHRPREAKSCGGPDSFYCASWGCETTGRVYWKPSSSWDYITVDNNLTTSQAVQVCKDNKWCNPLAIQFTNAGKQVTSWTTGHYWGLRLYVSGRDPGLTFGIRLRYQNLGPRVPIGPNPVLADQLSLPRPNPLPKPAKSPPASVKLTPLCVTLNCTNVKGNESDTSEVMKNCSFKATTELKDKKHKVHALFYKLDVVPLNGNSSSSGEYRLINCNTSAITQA

[5] = molecular target: AE.A244 V1V2 Tags (HIV-1); assay: ELISA; remark: listed apart in the source
[6] = molecular target: T3, gp70 B.CaseA2 V1/V2/V169K (HIV-1 V1V2 on murine leukemia virus gp70); assay: ELISA
T3 chain: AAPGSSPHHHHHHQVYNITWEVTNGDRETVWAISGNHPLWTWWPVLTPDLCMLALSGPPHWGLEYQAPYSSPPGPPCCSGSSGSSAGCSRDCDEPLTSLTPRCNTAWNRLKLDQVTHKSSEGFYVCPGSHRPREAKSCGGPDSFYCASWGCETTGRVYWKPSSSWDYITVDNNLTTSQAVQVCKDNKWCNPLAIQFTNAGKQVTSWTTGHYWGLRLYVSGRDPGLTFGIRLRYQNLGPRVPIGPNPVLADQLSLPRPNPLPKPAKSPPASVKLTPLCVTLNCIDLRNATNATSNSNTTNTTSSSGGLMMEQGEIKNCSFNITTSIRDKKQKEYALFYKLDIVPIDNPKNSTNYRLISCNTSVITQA

[7] = molecular target: T4, gp70 B.CaseA2 V1/V2/V169K/E172V/E173H (HIV-1 V1V2 on murine leukemia virus gp70); assay: ELISA
T4 construct: also called gp70 B.CaseA2 V1/V2 Mut3
T4 chain: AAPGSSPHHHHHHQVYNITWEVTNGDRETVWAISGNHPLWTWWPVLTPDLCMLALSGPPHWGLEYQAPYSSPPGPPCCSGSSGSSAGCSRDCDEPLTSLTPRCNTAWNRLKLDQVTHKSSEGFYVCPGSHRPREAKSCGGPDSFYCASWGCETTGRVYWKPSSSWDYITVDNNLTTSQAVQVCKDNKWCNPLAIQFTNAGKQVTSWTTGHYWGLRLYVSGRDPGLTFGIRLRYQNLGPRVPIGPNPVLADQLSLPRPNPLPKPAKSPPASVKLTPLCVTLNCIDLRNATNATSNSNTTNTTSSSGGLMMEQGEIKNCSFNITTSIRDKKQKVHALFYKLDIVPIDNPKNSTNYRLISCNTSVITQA

[8] = molecular target: AE.A244 V1V2 Tags (HIV-1); assay: ELISA; remark: listed apart in the source
[9] = molecular target: T1, AE.A244 gp120 delta 11; assay: ELISA; remark: listed apart in the source
[10] = molecular target: C.1086 V1V2 Tags (HIV-1); assay: ELISA; remark: listed apart in the source
[11] = molecular target: T2, gp70 C.1086 V1/V2; assay: ELISA
[12] = molecular target: Env of AE.92TH023 virus (HIV-1); assay: cell-based or functional assay
[13] = molecular target: Env of AE.CM244 virus (HIV-1); assay: cell-based or functional assay
[14] = molecular target: Env of 92TH023 K169Q virus (HIV-1); assay: cell-based or functional assay
[15] = molecular target: Env of TH023.6.I181L virus (HIV-1); assay: cell-based or functional assay
[16] = molecular target: Env of 703357.c02 virus (HIV-1); assay: cell-based or functional assay
[17] = molecular target: Env of 703357.2.Q169K virus (HIV-1); assay: cell-based or functional assay
[18] = molecular target: Env of 703357.2.Q169KR170Q virus (HIV-1); assay: cell-based or functional assay
[19] = molecular target: Env of 703357.2.I181L virus (HIV-1); assay: cell-based or functional assay
[20] = molecular target: Env of 703357.2.Q169KI181L virus (HIV-1); assay: cell-based or functional assay
[21] = molecular target: Env of 703357.2.Q169KR170QI181L virus (HIV-1); assay: cell-based or functional assay
[22] = molecular target: Env of 427299.c12 virus (HIV-1); assay: cell-based or functional assay
[23] = molecular target: Env of 427299.c12.Q169K virus (HIV-1); assay: cell-based or functional assay
[24] = molecular target: Env of 427299.c12.H81L virus (HIV-1); assay: cell-based or functional assay
[25] = molecular target: Env of 427299.c12.KL.Q169K/I181L virus (HIV-1); assay: cell-based or functional assay
[26] = molecular target: Env of CM244NW.4.K169Q virus (HIV-1); assay: cell-based or functional assay
[27] = molecular target: Env of CM244NW.6.I181L virus (HIV-1); assay: cell-based or functional assay

B1: CH59 (antibody, V domains shown)
VH: EVQLVESGGGLVQPGRSLRLSCAASGFTFDDGAMHWVRQAPGKGLEWVSGISWNSNIIAYADSVKGRFTISRDNAKNSLYLEMNSLRVEDTALYYCAKDSPRGELPLNYWGQGTLVTVSS
VL: SYELTQPPSVSVSPGQTARITCSGDALPKNYAYWYQQKSGQAPVLVIYEDSKRPSGIPERFSGSSSGTMATLTISGAQVEDEADYYCYSTDSSGNHRVFGGGTKLTVL
notes: also called mAb CH59
EC50 [1]: 0.014 nM | EC50 [2]: 0.087 nM | EC50 [3]: 0.1 nM | EC50 [4]: 0.067 nM | EC50 [5]: 0.0018 nM | binding result [6]: no binding | EC50 [7]: 0.02 µg/mL | EC50 [8]: 0.014 nM | EC50 [9]: 0.087 nM | EC50 [10]: 0.1 nM | EC50 [11]: 0.067 nM | ID50 assayed in TZM-bl cells, TH023.6 [12]: 1.92 µg/mL | ID50 assayed in TZM-bl cells, CM244.ec1 [13]: > 50 µg/mL | ID50 assayed in TZM-bl cells, TH023.6.K169Q [14]: > 50 µg/mL | ID50 assayed in TZM-bl cells, TH023.6.I181L [15]: 5.33 µg/mL | ID50 assayed in TZM-bl cells, 703357.c02 [16]: > 50 µg/mL | ID50 assayed in TZM-bl cells, 703357.2.Q169K [17]: > 50 µg/mL | ID50 assayed in TZM-bl cells, 703357.2.Q169KR170Q [18]: > 50 µg/mL | ID50 assayed in TZM-bl cells, 703357.2.I181L [19]: > 50 µg/mL | ID50 assayed in TZM-bl cells, 703357.2.Q169KI181L [20]: > 50 µg/mL | ID50 assayed in TZM-bl cells, 703357.2.Q169KR170QI181L [21]: > 50 µg/mL | ID50 assayed in TZM-bl cells, 427299.c12 [22]: > 50 µg/mL | ID50 assayed in TZM-bl cells, 427299.c12.Q169K [23]: > 50 µg/mL | ID50 assayed in TZM-bl cells, 427299.c12.H81L [24]: > 50 µg/mL | ID50 assayed in TZM-bl cells, 427299.c12.KL.Q169K/I181L [25]: > 50 µg/mL | ID50 assayed in TZM-bl cells, CM244NW.4.K169Q [26]: > 50 µg/mL | ID50 assayed in TZM-bl cells, CM244NW.6.I181L [27]: > 50 µg/mL
